The record followed here is publication PMC7237784.

For this data set, the target named is T1, AcFur (Acidithiobacillus caldus MTH-04) (UniProt A0A060A2G1).
T1 sequence: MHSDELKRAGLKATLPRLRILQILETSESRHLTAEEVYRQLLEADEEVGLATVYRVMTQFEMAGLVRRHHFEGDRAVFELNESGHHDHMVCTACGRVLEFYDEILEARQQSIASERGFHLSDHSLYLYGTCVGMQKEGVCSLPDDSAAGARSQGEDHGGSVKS
The data set can be described thus: EMSA. The settings on record: EMSA: 0.4 nM DNA, 0/2/4/8 nM protein, 10 mM Tris-HCl pH 8.0, 100 mM NaCl, 1 mM MnCl2, room temperature, 30 min; 5% native PAGE in 0.5x TBE, EB stain. For orientation: In EMSA bound probe runs differently from free probe, usually more slowly.

Turning to “TTCCACCTGCTCACCTGCGCGGGCCGAGCTCAGGCGGTGGGGGGAAAGGACTTGGGTCATGACGCTCACACTCCCAACGAGTTCGTGGGGACACTATATCATAATGGTAATCATTTGCAATATCAGCCCAAGGGAGGGCCGTCCCGGCGGACGCAGCCGCCGACGCTCAGTCCAGGTCGCCGTGCCTGGGTGTAAAACGC (double strand) [feoABC operator (feoA promoter)]”, the binding entry was “binds”.

“GCGTAGGACGTCCTTGATAACTGCAACTAAGTTGCATATATTCCGCACGACCACTCCGCGCGTCCCTGGGGAGCTTGACCGGTAAGTCTATTTATTGAATGATAATGATTAGCATTTATATTATTTGGAGAGATTGTCCATGCGTCGTATACCCCTCTGTGCGCTGCTGAGCACCATGCTTGCTTCCAGC (double strand) [feoP promoter]”: the binding result is given as “binds”.
